# Assay results: patent US20220411514A1 (published 2022)
# Molecular target: hGal-3 (UniProt P17931 2-250)
# Assay: SPR
# hGal-3, sequence (P17931 2-250): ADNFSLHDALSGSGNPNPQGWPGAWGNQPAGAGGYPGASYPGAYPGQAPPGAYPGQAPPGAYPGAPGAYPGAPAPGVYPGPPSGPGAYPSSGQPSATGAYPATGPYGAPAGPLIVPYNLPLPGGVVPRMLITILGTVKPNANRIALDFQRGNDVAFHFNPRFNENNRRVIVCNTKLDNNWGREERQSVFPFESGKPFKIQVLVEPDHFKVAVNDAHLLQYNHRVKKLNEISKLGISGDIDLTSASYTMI
row,Kd,Binder
1,2.53 nM,"13G4.2F8 (antibody, V domains shown) VH: QVQLQQPGAELVKPGASVKLSCKASGYTFTSYWMHWVKQRPGQGLEWIGMIHPNSGSTDYNEKFKNKATLNVDKSSSTAYIQLSSLTSEDSAVYYCTRWGIYYYARDYWGQGTTLTVSS VL: DIVMTQSQKFMSTSVGERVSITCKASQNVGTNVAWYQQKAGQSLELLIYGASNRHTGVPDRFTGSGSGTDFTLTITNVQSEDMTNYFCEQYSNFPLTFGAGTKLELKR"
2,5.22 nM,"4A11.2B5 (antibody, V domains shown) VH: QVQLQQSGPELVKPGASVKISCKASGYSFTNYYIHWVKQRPGQGLEWIGWIYPGSGNTNYNEKFKGKATLTADTSSSTTNMQLSSLTSEDSAVYYCSTAPGGFDVWGSGTTVTVSS VL: DIVMTQAAFSNPVTLGTSASISCRSSKSLLHSDGITYLYWYLQRPGQSPQLLIYRMSNLASGVPDRFSGSGSGTDFTLRISRVEAEDVGVYYCAQMLEFPLTFGAGTKLELKR"
3,< 1 nM,"4G2.2G6 (antibody, V domains shown) VH: QIQLVQSGPDLKKPGETVKISCKASGYTFTTYVMSWVKQAPGKDLKWMGWINTHSGVPTYADDFKGRFDFSLETSANTAFLQINNLKNEDTATYFCTRDGNDGDAMDNWGQGTSVTVSS VL: not shown"
4,16.5 nM,"IMT-006 (antibody, V domains shown) VH: QVQLVQSGAEVKKPGASVKVSCKASGYSFTNYYMHWVRQAPGQRLEWMGWIYPGSGNTNYNEKFQGRVTITADTSASTAYMELSSLRSEDTAVYYCSTAPGGFDVWGQGTTVTVSS VL: DIVMTQTPLSLSVTPGQPASISCKSSKSLLHSDGITYLYWYLQKPGQSPQLLIYRMSNLASGVPDRFSGSGSGTDFTLKISRVEAEDVGVYYCAQMLEFPLTFGQGTKLEIKR"
5,< 1 nM,19D9.2E5 (antibody) chain 1: QIQLVQSGPELKKPGETVKISCKASGYTFTTYGMGWVKQAPGKGLKWMGWINTYSGVPTYADDFKGRFAFSLETSTSTAYLQINNLKNEDMATYFCATPYEYDGAYWGQGTLVTVSA chain 2: not shown
6,11.3 nM,"15G7.2A7 (antibody, V domains shown) VH: EVQLQQSGPELVKPGASVKISCKASGYTFTDYYMNWVKQSHGKSLEWIGDINPNNGGTNYNQKFKGKATLTVDKSSSTAYMELRSLTSEDSAVYYCTSGYGFPYWGQGTLVTVSA VL: DIQMNQSPSSLSASLGDTISITCRASQNINIWLSWYQQKPGNIPQLLIYKASNLHTGVPSRFSGSGSGTDFTLTISSLQPEDIATYYCLQGQSYPLTFGAGTKLVMKR"
7,4.86 nM,"6H6.2D6 (antibody, V domains shown) VH: QIQLVQSGPELKKPGETVKISCKASGYTFTTYGMSWVKQAPGKGLKWMAWINTYSGVPTYADDFKGRFAFSLETSASTAYLQINNLTNEDTATYFCARGPYAMDYWGQGTSVTVSS VL: DIQMTQTTSSLSASLGDRVTISCSASQGISNYLNWYQQKPDGTVKLLIYYTSSLHSGVPSRFSGSGSGTDYSLTISNLEPEDIATYYCQQYSELPYTFGSGTKLEIKR"
8,2.06 nM,"15F10.2D6 (antibody, V domains shown) VH: EVQLVESGGGLVKPGGSLKLSCAASGFAFSSYAMSWVRQTPEKRLEWVATISDGGVYTYYTDHVKGRFTISRDNAEDNLYLQMSHLKSEDTAMYYCVRDGGYWGQGTTLTVSS VL: DVLMTQTPLSLPVSLGDQASISCRSSQSIVHNNGNTYLEWYLQKPGQSPKLLIYKVSNRFSGVPDRFSGSGSGTDFTLKISRVEAEDLGVYYCFQGSHVPLTFGGGTKLELKR"
9,6.09 nM,"IMT-001 (antibody, V domains shown) VH: QVQLVQSGSELKKPGASVKVSCKASGYTFTNYGMNWVRQAPGQGLKWMGWINTNTGEPTYVEEFTGRFVFSLETSVSTAYLQISSLKAEDTAVYFCAPYDNFFAYWGQGTTVTVSS VL: DIVLTQSPLSLPVTPGEPASISCRSSKSLLYKDGKTYLNWFLQKPGQSPQLLIYLMSTHASGVPDRFSGSGSGTDFTLKISRVEAEDVGVYYCQQLVDYPLTFGGGTKLEIKR"
10,18.4 nM,"9H2.2H10 (antibody, V domains shown) VH: QVQLQQPGAELVGPGSSVKLSCKASGYTFTNYWIHWVKQRPLQGLEWIGNIDPSDSETHYNQKFKDKATLTVDKSSSTAYMQLSSLTSEDSAVYYCARHGYYDYWGQGTTLTVSS VL: DIVMTQSHKFMSTSVGDRVSITCKASQDVSTAVAWYQQKPGQSPKLLIYWASTRHTGVPDRFTGSGSGTDYTLTISSVQAEDLALYYCQQHYTTPLTFGAGTKLELKR"
11,2.49 nM,"7D8.2D8 (antibody, V domains shown) VH: EVQLVESGGGLVKPGGSLKLSCAASGFTFSSYAMSWVRQTPEKRLEWVATISDGGIYTYYPDNVKGRFTISRDNAKNNLFLQMSHLKSEDTAMYYCVRDGGYWGQGTTLTVSS VL: DVLMTQTPLSLPVSLGDQASISCRSSQSIVHSNGNTYLEWYLQKPGQSPKLLIYKVSNRFSGVPDRFSGSGSGTDFTLKISRVEAEDLGVYYCFQGSHVPLTFGAGTKLELKR"
12,< 1 nM,"19B5.2E6 (antibody, V domains shown) VH: QIQLVQSGPELKKPGETVKISCKASGYTFTTYAMSWVKQAPGKGLKWMGWINTYSGVPTYADDLKGRFAFSLETSASTAYLQINNLKNEDTATYFCARGPYAMDYWGQGTSVTVSS VL: DIQMTQTTSSLSASLGDRVTISCSASQGINNYLNWYQQKPDGTVKLLIYYASSLHSGVPSRFSGSGSGTDYSLTISNLEPEDIATYYCQQYSQVPYTFGSGTKLEIKR"
13,4.26 nM,"23H9.2E4 (antibody, V domains shown) VH: QIQLVQSGPELKKPGETVKISCKASGYTFTTYAMSWVKQAPGKGLKWMGWINTYSGVPTYADDLKGRFAFSLETSASTAYLQINNLKNEDTATYFCARGPYAMDYWGQGTSVTVSS VL: DIQMTQTTSSLSASLGDRVTISCSASQGINNYLNWYQQKPDGTVKLLIYYASSLHSGVPSRFSGSGSGTDYSLTISNLEPEDIATYYCQQYSQVPYTFGSGTKLEIK"
14,< 1 nM,"3B11.2G2 (antibody, V domains shown) VH: QIQLVQSGPELKKPGETVKISCKTSGYKFKTYVMSWVKQAPGKALKWMGWINTYSGVPTYADDFKGRFAFSLETSASTAYLEIINLKNEDTATYFCARDGNYGDPMDYWGQGTSVTVSS VL: not shown"
